Measured values taken from patent US20250281536A1 (published 2025).

Target: T1, Human CD4-Fc (human, UniProt P01730 26-390)
T1 construct: not shown: Fc
Assay: BLI; human CD4-Fc captured; binder-mouse Fc homodimer at 125 nM

B1: Binder 279 expressed as homodimer with mouse Fc (Fc fusion)
chain: QVQLVQSGAEVKKPGASVKVSCKASGGTFSSYAISWVRQAPGQGLEWMGWINPNSGGTNYAQKFQGRVTMTRDTSTSTVYMELSSLRSEDTAVYYCARDGYSGSYSDWGQGTLVTVSSGGGGSGGGGSGGGGSDIVMTQSPDSLAVSLGERATINCKSSQSVLSSSYNKNYLAWYQQKPGQPPKLLIYWASTRESGVPDRFSGSGSGTDFTLTISSLQAEDVAVYYCQQYYSTPWTFGQGTKVEIK
notes: not shown: mouse Fc
- Kd: 5 nM
- koff: 0.00021 s⁻¹
- kon: 41700 M⁻¹ s⁻¹
